For assay [1], the target named is Sec61α (canine (endogenous in MDCK)) (UniProt P38377). Kind of assay: FRET or BRET.
The target of assay [2] is Sec61β (canine (endogenous in MDCK)) (UniProt P60467). Kind of assay: FRET or BRET. A general note: Bioluminescence resonance energy transfer reports proximity on the nanometre scale.
Chain of Sec61β (canine (endogenous in MDCK)) (P60467 whole entry): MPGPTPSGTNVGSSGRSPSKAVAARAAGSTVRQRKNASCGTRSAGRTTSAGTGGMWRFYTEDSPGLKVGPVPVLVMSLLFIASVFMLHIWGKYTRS

Chain of Sec61α (P38377 whole entry): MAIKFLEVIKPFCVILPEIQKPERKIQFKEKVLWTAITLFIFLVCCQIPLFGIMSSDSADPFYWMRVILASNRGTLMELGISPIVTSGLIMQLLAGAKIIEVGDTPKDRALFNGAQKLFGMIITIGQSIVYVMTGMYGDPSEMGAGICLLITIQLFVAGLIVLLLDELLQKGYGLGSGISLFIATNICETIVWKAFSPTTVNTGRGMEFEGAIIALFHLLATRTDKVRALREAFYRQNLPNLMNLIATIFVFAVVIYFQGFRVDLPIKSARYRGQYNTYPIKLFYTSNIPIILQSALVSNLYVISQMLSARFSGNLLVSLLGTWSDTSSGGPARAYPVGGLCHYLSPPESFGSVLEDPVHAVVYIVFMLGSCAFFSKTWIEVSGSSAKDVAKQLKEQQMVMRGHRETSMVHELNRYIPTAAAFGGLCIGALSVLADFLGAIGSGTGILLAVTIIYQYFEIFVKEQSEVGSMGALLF
Chain of Sec61α (canine (endogenous in MDCK)) (P38377 whole entry): as above
Chain of Sec61β (P60467 whole entry): as the sequence (P60467 whole entry) above

In assay [1], “Sec61α (from UniProt P38377 1-476) (natural protein)” returned an FRET efficiency (pactamycin-treated cells) of 35.5%, an FRET efficiency (puromycin-treated cells) of 33.6% and an FRET efficiency (untreated cells) of 38.3%. Also, in assay [2], the FRET efficiency (pactamycin-treated cells) was determined as 28%; the FRET efficiency (puromycin-treated cells) is 27.9%; the FRET efficiency (untreated cells) is 26.4%; the FRET efficiency (untreated cells, Fig. 3 B) was determined as 30%.
In assay [1], “Sec61β (from UniProt P60467 1-96) (natural protein)” showed an FRET efficiency (pactamycin-treated cells) of 46.8%, an FRET efficiency (puromycin-treated cells) of 46.1% and an FRET efficiency (untreated cells) of 41.8%. In addition, in assay [2], the FRET efficiency (pactamycin-treated cells) turned out to be 23.9%; the FRET efficiency (puromycin-treated cells) is 24.8%; the FRET efficiency (untreated cells) was 21.4%; the FRET efficiency (untreated cells, Fig. 3 A, donor to acceptor antibody 1:8) turned out to be 17%. Moreover, the stoichiometry N in assay [2] was > 2.

One may read the stoichiometry N as a count of units in the complex or per binding partner.
